Patent publication US20090269346A1 (RAPTOR PHARMACEUTICAL, published 2009)

Columns and labels:
LRP2 CR89 V1047D = biological target: T1, LRP2 CR89 V1047D (human, UniProt P98164 1022-1105); assay: solid-phase binding assay: CR protein coated on the plate, ligand titrated, anti-RAP polyclonal and HRP secondary, OD 450 nm
T1 construct: also called YDWR
T1 chain: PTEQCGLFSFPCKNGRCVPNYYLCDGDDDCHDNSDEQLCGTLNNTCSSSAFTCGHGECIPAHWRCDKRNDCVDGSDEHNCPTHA
Procedure: (§1) Solid phase binding assays-Purified, refolded CR protein (1 μg) was bound to Nunc Maxisorp™ 96-well plates in TBS pH 8 supplemented with 5 mM CaCl₂ (TBSC) overnight at 4° C. Wells were washed with TBSC and then blocked with TBSC containing 2% bovine serum albumin (BSA). RAP ligands were then incubated with the immobilized receptor at a range of concentrations for 2 hours in the above blocking buffer supplemented with 0.05% Tween-20 at room temperature. Control wells contained no added ligand. As an additional control, to determine whether the absence of calcium affected binding, 10 mM EGTA was included in the incubation medium for some samples. Wells were washed with TBSTC and bound ligands detected with polyclonal anti-RAP (BP41/42, 1:1,000, BioMarin). Excess primary antibody was removed and wells washed before incubation with the secondary antibody, HRP-conjugated goat anti rabbit IgG (Bio-Rad). After washing, TMB substrate solutions (Bio-Rad) were added to detect HRP. Color development was stopped with 1N HCl. Absorption at 450 nm was measured with a microplate spectrophotometer (Molecular Devices). Data were plotted and Kd values derived by non-linear regression with the assumption of single-site binding (GraphPad Prism).
(§2) One premise of this work was that amino acids at A, C, A′ and C′ within the calcium-binding loops of a CR pair were key determinants of binding affinity for RAP and would be similarly important for binding of RAP variants. To test this idea, we prepared mutants of LRP2 CR89 in which the native, non-canonical residues at these positions were sequentially substituted with the non-native, canonical residues. As defined above, the A, C, A′, C′ string for LRP2 CR89 is YVWR. Mutants included LRP2 CR89 Y1042W (WVWR), LRP2 CR89 V1047D (YDWR), LRP2 CR89 R1088D (YVWD), LRP2 CR89 V1047D R1088D (YDWD), LRP2 CR89 Y1042W V1047D R1088D (WDWD), LRP2 CR89 Y1042W V1047D (WDWR), LRP2 CR89 Y1042W R1088D (WVWD). Binding to both RAP d3 and RAPv2A d3 were measured for each LRP2 CR89 mutant by solid-phase assay. Samples were tested in triplicate. OD values from uncoated wells, receptor-coated wells incubated with buffer alone, and uncoated wells incubated with the highest ligand concentration all gave similar values for all conditions tested.

LRP2 CR89 R1088D = biological target: T2, LRP2 CR89 R1088D (human, UniProt P98164 1022-1105); assay: as above
T2 construct: also called YVWD
Procedure: as §1, §2

LRP2 CR89 V1047D R1088D = biological target: T3, LRP2 CR89 V1047D R1088D (human, UniProt P98164 1022-1105); assay: as above
T3 construct: also called YDWD
T3 chain: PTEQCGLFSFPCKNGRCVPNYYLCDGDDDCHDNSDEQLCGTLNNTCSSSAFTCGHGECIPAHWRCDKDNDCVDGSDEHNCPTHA
Procedure: as §1, §2

LRP2 CR89 Y1042W = biological target: T4, LRP2 CR89 Y1042W (human, UniProt P98164 1022-1105); assay: as above
T4 construct: also called WVWR
T4 chain: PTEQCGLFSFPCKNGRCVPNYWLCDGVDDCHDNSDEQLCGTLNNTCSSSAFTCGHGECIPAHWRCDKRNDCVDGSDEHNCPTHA
Procedure: as §1, §2

LRP1 CR3-5 = biological target: T5, LRP1 CR3-5 (human); assay: solid-phase assay, coated CR protein, anti-RAP, OD450
T5 construct: range 852-973; Amplified from human cDNA; also called L1 CR3-5
T5 sequence (Q07954 852-973): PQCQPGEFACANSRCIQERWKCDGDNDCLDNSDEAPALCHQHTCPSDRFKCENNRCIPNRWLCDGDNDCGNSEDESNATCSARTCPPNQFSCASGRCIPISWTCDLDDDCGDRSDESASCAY
Procedure: (§3) Percent of maximum binding is the ratio of the OD at the highest concentration tested for each ligand and the highest OD measured for all such ligands at that concentration.
as §1
(§4) Next, binding of RAP d3 and RAPv2A d3 proteins to LRP1 CR3-5 and LRP2 CR89 was assessed. In order to understand the relative contributions of each RAPv2A d3 mutation to differences in affinity, we also prepared a number of RAPv2A d3 revertants and RAP d3 forward mutants, all comprising sequence variants intermediate between RAPv2A d3 and wild-type RAP d3 (FIGS. 7A and B, Table 1). Samples were tested in triplicate and experiments were repeated at least once. Values from different experiments were combined and a single mean and standard deviation obtained for each concentration of ligand tested.

LRP2 CR89 = biological target: T6, LRP2 CR89 (human, UniProt P98164 1025-1102); assay: as above
T6 construct: domain: CR8 and CR9; also called YVWR; L2 CR89; not shown: N-terminal hexahistidine and S-peptide from pET30(+)a
T6 sequence (P98164 1025-1102): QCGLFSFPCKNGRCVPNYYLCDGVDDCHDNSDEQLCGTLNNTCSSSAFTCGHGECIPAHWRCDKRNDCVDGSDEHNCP
Procedure: as §3, §1, §4

ST14 CR12 = biological target: T7, ST14 CR12 (human, UniProt Q9Y5Y6 452-524); assay: solid-phase binding assay, ligand at 80 nM on coated CR proteins, blank-corrected absorbance
T7 construct: also called MAT CR12; Mat CR12
T7 sequence: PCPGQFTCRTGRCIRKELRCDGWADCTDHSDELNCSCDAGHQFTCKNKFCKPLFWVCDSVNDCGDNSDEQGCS
Procedure: as §1
(§5) Binding experiments were also carried out comparing the binding of RAP d3 and RAPv2A d3 to an array of CR pairs (FIG. 9), similar to the experiment depicted in FIG. 5. For these experiments, RAP d3 and RAPv2A d3 (or RAPv2 d3) were each incubated at 80 nM concentrations with LRP1 CR3-5, LRP6 CR12, LRP6 CR23, LRP6 CR1-3, LRP2 CR89, LRP2 CR2728, LRP2 CR3031, LRP2 CR3435, LRP2 CR34-36, VLDLR CR78, VLDLR CR6-8, MAT CR12, MAT CR23 and MAT CR34. Samples were tested twice, in duplicate, and values combined. Means and standard deviations were then calculated. Blank values obtained from wells incubated in the absence of ligand were used to correct absorbance data.

LRP2 CR3031 = biological target: T8, LRP2 CR3031 (UniProt P98164 3677-3755); assay: as above
T8 construct: domain: CR30 and CR31; its making is not described
T8 sequence (P98164 3677-3755): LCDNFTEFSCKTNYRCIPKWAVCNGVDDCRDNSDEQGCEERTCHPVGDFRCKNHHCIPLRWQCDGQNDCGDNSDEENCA
Procedure: as §1, §5

B1: wild-type RAP d3 (ligand)
chain: LDRLRRVSHQGYSTEAEFEEPRVIDLWDLEQSANLTDKELEAFREELKHFEAKIEKHNHYQKQLEIAHEKLRHAESVGDGERVSRSREKHALLEGRTKELGYTVKKHLQDLSGRISRAR
notes: expressed in E. coli from pET30(+)a; not shown: vector-encoded N-terminal tags of pET30(+)a (hexahistidine and S-peptide, as stated for the CR constructs)
B1: no binding (tested: 100 nM) (LRP2 CR89 V1047D); no binding (tested: 100 nM) (LRP2 CR89 R1088D); no binding (tested: 100 nM) (LRP2 CR89 V1047D R1088D). The binding result (LRP2 CR89 Y1042W) was “no binding (tested: 100 nM)”, the “% max (percent of maximum binding)” value (LRP1 CR3-5) was 76% and the Kd (LRP1 CR3-5) was 16 nM. The “% max (percent of maximum binding)” value (LRP2 CR89) was 5%, the binding result (ST14 CR12) was “no binding (tested: 80 nM)” and the binding result (LRP2 CR3031) was “no binding (tested: 80 nM)”.
